According to paper PMC7385938 (Cell Stress & Chaperones, 2020):

Target: the molecule itself
Experiment: non-reducing LDS-PAGE of proteoliposomes

| Protein | binding result | stoichiometry N |
| --- | --- | --- |
| HSPA1-N (N-terminal end domain of HSPA1) (domain or fragment) not shown | binds | – |
| HSPA5-FL (full-length human HSPA5 without the leading signal peptide for ER translocation) (natural protein) not shown | binds | – |
| HSPA5-N (N-terminal end domain of HSPA5) (domain or fragment) not shown | – | 2 |
